Data taken from patent US20060234940A1.
Where no end group is shown, it is not given here. The star is where a group is joined. Thia = thiazolidide, C1CN(*)CS1

How the values were obtained:
[1] = target: recombinant human DP IV, wild type (human) (UniProt P27487); assay: photometric assay, competition with the standard substrate GP-4NA
[2] = target: recombinant human DP IV, wild type (human) (UniProt P27487); assay: MALDI-TOF MS, inhibition of DP IV-catalyzed truncation of the substrate GIP after preincubation with TFTSDY
[3] = target: recombinant human DP IV, wild type (human) (UniProt P27487); assay: MALDI-TOF MS, inhibition of DP IV-catalyzed truncation of the substrate PACAP-27 after preincubation with TFTSDY
[4] = target: recombinant human DP IV, wild type (human) (UniProt P27487); assay: MALDI-TOF MS, inhibition of DP IV-catalyzed truncation of the substrate PACAP-38 after preincubation with TFTSDY
[5] = target: recombinant human DP IV, wild type (human) (UniProt P27487); assay: MALDI-TOF MS, inhibition of DP IV-catalyzed truncation of the substrate glucagon after preincubation with TFTSDY

recombinant human DP IV, wild type (human), sequence (P27487 other isoform, or with tags, fused parts or gaps): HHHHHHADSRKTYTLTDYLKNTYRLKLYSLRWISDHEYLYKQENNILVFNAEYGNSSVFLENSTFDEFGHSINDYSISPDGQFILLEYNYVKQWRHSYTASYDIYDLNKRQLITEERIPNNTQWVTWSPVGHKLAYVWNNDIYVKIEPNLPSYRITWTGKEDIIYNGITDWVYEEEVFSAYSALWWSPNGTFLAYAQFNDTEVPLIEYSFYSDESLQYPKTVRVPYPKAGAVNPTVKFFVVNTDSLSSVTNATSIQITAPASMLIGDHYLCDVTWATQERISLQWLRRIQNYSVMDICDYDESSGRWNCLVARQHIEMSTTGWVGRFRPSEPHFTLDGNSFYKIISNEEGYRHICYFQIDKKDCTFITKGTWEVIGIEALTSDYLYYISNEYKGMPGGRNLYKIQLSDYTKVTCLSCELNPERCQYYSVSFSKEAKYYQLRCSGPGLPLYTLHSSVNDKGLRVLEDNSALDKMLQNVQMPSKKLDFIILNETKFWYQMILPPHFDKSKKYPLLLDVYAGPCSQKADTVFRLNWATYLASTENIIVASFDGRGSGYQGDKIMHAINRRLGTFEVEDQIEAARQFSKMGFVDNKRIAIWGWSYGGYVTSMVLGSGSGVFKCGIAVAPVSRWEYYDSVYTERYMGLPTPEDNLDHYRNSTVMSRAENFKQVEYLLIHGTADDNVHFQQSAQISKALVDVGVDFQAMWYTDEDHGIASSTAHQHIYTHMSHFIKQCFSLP

Binder	Ki [1] [nM]	Ki [2] [µM]	Ki [3] [µM]	Ki [4] [nM]	Ki [5] [µM]
YAESTF-NH2 [YAESTF amide]	35.1	–	–	–	–
TFTSDY [hexapeptide TFTSDY]	–	14	26.7	2800	3.7
HSDGIFTDSYSRYRKQMAVKKYLAAVLGKRYKQRVKNK (peptide, UniProt P18509 132-169, looked up, ends and bridges not checked) [PACAP-38]	38300	–	–	–	–
RRLSYSRRRFE-Thia (also: linkage of decapeptide to Glu not explained) [Transp 01 (…-E-Thia)]	50.8	–	–	–	–
